Measurements taken from patent publication US20150374394A1, “SONOLYSIS WITH BIODEGRADABLE NANOPARTICLES” (THE BOARD OF TRUSTEES OF THE UNIVERSITY OF ARKANSAS, priority 2012, published 2015).

Test system: clots formed from pooled rabbit plasma with rabbit blood cells
Assay: In vitro sonothrombolysis (STBL) of clots with MBs, CPDL, tPA and/or 450 nm StNPs, pulsed 1 MHz ultrasound
Details: pulsed 1 MHz ultrasound 15 min, in bovine calf serum, 0.5 mL/min; control ultrasound alone; 3 μm MBs, 0.1 mg/ml tPA, 0.06% w/V CPDL nanoemulsion
Procedure: FIG. 1 depicts a graph showing the potentiation of sonothrombolysis (STBL) efficacy by microbubbles (MBs) and/or a nanoemulsion of cyclopentadecanolide with or without tissue plasminogen activator (tPA). […] STBL was performed with fibrin-rich clots (see Example 2) using pulsed, 1 MHz ultrasound for 15 min. The MBs, tPA, StNPs etc. were suspended in bovine calf serum and introduced at a flow rate of 0.5 mL/min. STBL efficacy is reported as % clot lysis. Abbreviations: US=ultrasound; MBs=microbubbles; CPDL=cyclopentadecanolide; StNPs=starch nanoparticles; tPA=tissue plasminogen activator.
The clots used in these experiments were formed by mixing pooled rabbit plasma with rabbit blood cells (final volume equal to 2 mL; the volume of whole rabbit blood from which the cells were obtained), incubating this mixture for 24 h at 37° C. and then curing the formed clots for 24 h at 5° C. […] The StNPs were diluted to have an Optical Density reading at 530 nm (OD530) of 1.0. […] STBL efficacy was measured as the percent of the initial clot mass that was lost from the clot during the 15 min treatment time.

B1: tissue plasminogen activator (protein, UniProt P00750 36-562, looked up)
Tissue-type plasminogen …: SYQVICRDEKTQMIYQQHQSWLRPVLRSNRVEYCWCNSGRAQCHSVPVKSCSEPRCFNGGTCQQALYFSDFVCQCPEGFAGKCCEIDTRATCYEDQGISYRGTWSTAESGAECTNWNSSALAQKPYSGRRPDAIRLGLGNHNYCRNPDRDSKPWCYVFKAGKYSSEFCSTPACSEGNSDCYFGNGSAYRGTHSLTESGASCLPWNSMILIGKVYTAQNPSAQALGLGKHNYCRNPDGDAKPWCHVLKNRRLTWEYCDVPSCSTCGLRQYSQPQFRIKGGLFADIASHPWQAAIFAKHRRSPGERFLCGGILISSCWILSAAHCFQERFPPHHLTVILGRTYRVVPGEEEQKFEVEKYIVHKEFDDDTYDNDIALLQLKSDSSRCAQESSVVRTVCLPPADLQLPDWTECELSGYGKHEALSPFYSERLKEAHVRLYPSSRCTSQHLLNRTVTDNMLCAGDTRSGGPQANLHDACQGDSGGPLVCLNDGRMTLVGIISWGLGCGQKDVPGVYTKVTNYLDWIRDNMRP
notes: thrombolytic agent, used at 0.1 mg/ml
STBL efficacy (FIG. 1), in words: improved STBL efficacy
